Results on one substance are retold here after paper PMC4572934.

The experiment concerns the target GST-tagged FXR ligand binding domain (FXR-LBD). Put plainly: AlphaScreen or HTRF; FXR coactivator recruitment assay with increasing amounts of mometasone furoate (MF); GST-FXR-LBD on anti-GST acceptor beads, biotinylated SRC-1 peptide on streptavidin donor beads; 1 hour incubation with ligand, then 4 hours with beads. For orientation: In Alpha technology, singlet oxygen from a donor bead excites a nearby acceptor bead.

The substance “biotinylated SRC-1 peptide (co-activator)” registered an efficacy of SRC-1 recruitment with MF compared to CDCA of 12%.
